Test results reported in the DeepSol protein solubility set.

experiment: soluble on expression in E. coli; label from the status in PepcDB or PDB records

| Sequence | soluble on expression in E. coli |
| --- | --- |
| MGIIERIKEIEAEMARTQKNKATEYHLGQLKAKIAKLRTQLLEPPKGASGGGEGFEVTKYGHGRVALIGFPSVGKSTLLTMLTGTHSEAASYEFTTLTCIPGVIHYNDTKIQLLDLPGIIEGASEGKGRGRQVIAVAKSSDLVLMVLDASKSEGHRQILTKELEAVGLRLNKTPPQIYFKKKKTGGISFNTTAPLTHIDEKLCYQILHEYKIHNAEVLFRENATVDDFIDVIEGNRKYIKCVYVYNKIDVVGIDDVDRLSRQPNSIVISCNLKLNLDRLLARMWDEMGLVRVYSKPQGQQPDFDEPFVLSSDRGGCTVEDFCNHVHRTLVKDMKYALVWGTSTRHNPQNCGLSQHLEDEDVVQIVKKKERDEGGRGRFKSHSNAPARIADREKKAPLKQ | soluble |
| MKKLLSACLILFTVVCSAYAADEKEAAPAAEYAYYGFEPEIVTNYISNRKKLGFVKISVELMVKSPDDLVIVERHDPLLRAAIIEVLGNQAEEKVKSLTGREEIRRECFDMVNNLLTKEAGKPLVVNLLFTSYLYD | not soluble |
| MAARKVRIQTTINSNVYEHYIKKLLPEYGQLNKLIEEAVKQLFEIRENELSKLDRLRAKMMREAGVIAIGFESAEKALKGEIEKVLSENEINFLLEWYYGRPIEKIAFEEAIEFMRTALIAMNWAVDAKVNLEGEETHIMVRSNLGRGLAELLCMVIKHFFERNYGVEVRFSVYPGGYTLSFRHVSTDAYPCSSVRE | not soluble |
| MVNLTELDRMLTETRGLLSQVRSGKGGASQEAVEGQGSAADGRIRVVAGAGGEITSIELDPRVMRMSSQELAEHLVEAVNQALRELRAQVTTAETAIAPEVLAQRLAEVQDQGLRQMTMFVEGLRDAMTQLGQRADRSG | not soluble |
| MGKNLSLRQDDAQHALSANTSSAYNSVYDFLRYHDRGDGLTVNGKTSYSIDQAAAQITRENVSWNGTNVFGKSANLTFKFLQSVSSIPSGDTGFVKFNAEQIEQAKLSLQSWSDVANLTFTEVTGNKSANITFGNYTRDASGNLDYGTQAYAYYPGNYQGAGSSWYNYNQSNIRNPGSEEYGRQTFTHEIGHALGLAHPGEYNAGEGDPSYNDAVYAEDSYQFSIMSFWGENETGADYNGHYGGAPMIDDIAAIQRLYGANMTTRTGDSVYGFNSNTDRDFYTATDSSKALIFSVWDAGGTDTFDFSGYSNNQRINLNEGSFSDVGGLKGNVSIAHGVTIENAIGGSGNDILVGNSADNILQGGAGNDVLYGGAGADTLYGGAGRDTFVYGSGQDSTVAAYDWIADFQKGIDKIDLSAFRNEGQLSFVQDQFTGKGQEVMLQWDAANSITNLWLHEAGHSSVDFLVRIVGQAAQSDIIV | soluble |
| MSGPVRTRRILEELGPTYIKLGQLLSMRRDLVPLEYAAEFSKLQDDAPSFGFEEVELIIREELGLPVEDLFESFEKKPLACASIGQVHRAKLKNGDDVVVKVQRPGIKEVIESDLDIMYSLSRLLTEHIPEARLYRPVELVDELSRSILAEIDYSQEGWNTDRFAENFKDSEQIHIPKVYWDYTGTRVLTLEYIEGIKGGRVDLLEKLEHHHHHH | not soluble |
| MLRSAVSALYRASRSFSETVPRLSATPLGKQEPQLSLSYTCKVCNSREGPKTFAKSSYEKGVVIVTCSGCHNHHIIADNIGWFEDFKGKNIEDHLKTRGEAVKRRDTIKNENGIFEIQK | not soluble |
| DNFNQQKKKFGGQDIFMTEEQKKYYNAMKKLGSKKPQKPIPRPANKFQGMVFD | soluble |
| MHHHHHHSSGRENLYFQGKLPEPQFYAEPHTYEEPGRAGRSFTREIEASRIHIEKIIGSGDSGEVCYGRLRVPGQRDVPVAIKALKAGYTERQRRDFLSEASIMGQFDHPNIIRLEGVVTRGRLAMIVTEYMENGSLDTFLRTHDGQFTIMQLVGMLRGVGAGMRYLSDLGYVHRDLAARNVLVDSNLVCKVSDFGLSRVLEDDPDAAYTTTGGKIPIRWTAPEAIAFRTFSSASDVWSFGVVMWEVLAYGERPYWNMTNRDVISSVEEGYRLPAPMGCPHALHQLMLDCWHKDRAQRPRFSQIVSVLDALIRSPESLRATATVS | soluble |
| EEHTIIQAEFYLLPDKRGEFMFDFDGDEIFHVDIEKSETIWRLEEFAKFASFEAQGALANIAVDKANLDVMKERSNNTPDANVAPEVTVLSRSPVNLGEPNILICFIDKFSPPVVNVTWLRNGRPVTEGVSETVFLPRDDHLFRKFHYLTFLPSTDDFYDCEVDHWGLEEPLRKHWEFEE | soluble |
| GWRAKVAGIDPKGSDTHYSEGSSYTFYPYGQAVLLPNIFAHRDVGNTACPGRYGYAQMDNIRNIAKQKYDSIRSGSGATAPAAPSTPSKPAPAPAAPAAPSAPAAPAGTNPIGLLSQGSTPANAGSLVGLAVAAATSLGLIGNLNNIGDVPVIGGLKLSQLQPIIGKIVELLGNNDISRVWRDVNSFAGAALGNARSPIAHYASATGTPIDYALFDNGIVISNPETGTNALWGTIGDLWAQQGFEAGPLGLPTSSVFEVDGLQRVNFQHGYITFNPTTSAVDIQVQ | not soluble |
| MILMRTIDWNEESNSVVLVDQTLLPQEYKVIECKTLSSLCEAIQSLRIRGAPALGAAGGFGIALAAYLSGAKDIESMTKDLKVAAKALKSTRPTAVNLAWGVDRVLNAISDAFDFRGIRDIALQEARDIAEEDIETNKLIGKYGAKLLKDGDTVLTHCNAGRLACVDWGTALGVVRSAIADGKEIKVLACETRPLNQGSRITTWELMQDKIPVTLIADSMAGWAMRQGLVNSVLVGADRITQDVVFNKIGTYTHSILAREHEIPFYVAAPVSTFDFEGWEGSIKIEMRNPDELRFAGCQQLAPEDVPVYNPAFDATPMENVTALITERGVFYPPILLDEVLVLEHHHHHH | not soluble |
| MHTRAEKLEAFGRLLDVLDTLREQCPWDRKQTNESLRTNTIEEVYELSEALLGECPDDIRKELGDVLLHVAFYAKIGEEKGQFDIASVCHALCDKLIYRHPHIYGNVQVENAAEVVRNWEQLKLREKDGNKSVLSGVPKSLPALVKSYRMQEKAAGVGFDWEQREQVWPKVEEELNEVRGAIVSEDPDAMEAEFGDLLFAVVNAARLYGINPDNALERTNRKFDSRFSYVEQRAKQQGKALRDMTLSEMDALWNEAKQKGL | not soluble |
| MSLKSTVLLIDDDQDVLDSYLHLMSIAGLTAKAVIDPTQAMSHIQPDWNGVVLLDMYMPQLHGMELLKQIKAVDDKIPVIVITGHGDIPMAVEAVKMGACDFLEKPINPPQLLTLIKQHLELRRSFIEQKLLLSRSVKRELVGKSAQMEQIRSHVAQYALLNRHVVIVGESGCGRHTIAYLIHQLTTNNGHLPWVELVASAKTEWSTVEPKVQESAGGTLLIDHIELLSEEVQRNVVQSLLNQERLNRPRTRVIAVIDQPPEQLIAQNQLLPELYYLLNQGQIDVPLLRQRPDDIAALFHYFLKQSCYKLGKPMPNVEPHYLALLRAHQWPGNVRELRNVAELYAIGIVKLAGKERLYNQEEMLSPLDELVDDYEKQVIEDALFLFSGRVADAANYLQVPRKKLYLRMKKHGLEKDAFKAREGHHHHHH | soluble |
| MFQWLYDVLWLLAPIWIRRYLDKRSGSAPAYRAHRDERFGKPHPNPVTGAVWIHAVSVGETRAAQPLIRELRRRFPDAPLLMTQMTPTGRETAQVLFPDAQCRYLPYDKKTWVRQFLREHRPMFGILMETEIWPNLMKECRRAGVPLFLANARLSEKSLNGYLKVRRLIRPAAASLTGCLAQTEADAARLAKLGAASVQVCGNTKYDLMPSEDMKTLAGQFEKRIGGRPVAVCGSTRVYRGEDEAEKLLAAWQQYRGDALLAVVPRHPEHFQTTFETAKRFGFKVQRRSDGLPVEPDTQVWVGDSMGELYAYYLCADVAFVGGSLVGSGCQNIIEPLSCGVTTIFGFSTYNFSEACRHALASGAAVQVESADAWREAVEKTLSGEGGGMQMQARVDGFIAQHRGAGARIAEAVREAVCGHRGRLEHHHHHH | not soluble |
| MGILSGNPQNEPLHYGEVFDIWSYLLAAQGAIASHQVFMNHTGDEDLKKFLEGLIENDMNSEIEELKALLKINGVALPPAPPERPVASIEDIPPGARINDVEIAAAVSTGLAAGLVTCSQVMGKCLREDVGMLFGQFHMKKAQAGVTLLRLSKKKGWVVPPPLHVRNSDQA | not soluble |
| MSPLKPLYKLYEWYISRNLRRDRMPRHVAIIMDGNRRYSKLQGSMNPIEGHKKGIETLEKVLDWCVDLGIEIVTAYAFSTENFKRPEKEVKGLMKLFRENFEAIASNEKIHKNRVRVRAVGKLELLPEDVRRAIEIAEKSTEQYSDRLVNIAIGYDGRQEIVDATRKIAEDVKAGLIDPEDIDEDMINRNLYTAGLEDPHLIIRTSGEERLSGFLLWQSSYSELYFCDSLWPELRKVDFLRAIRSYQQRERRFGV | soluble |
